2 molecules from patent publication US20040002450A1, “Y17 - isolated molecules comprising epitopes containing sulfated moieties, antibodies to such epitopes, and uses thereof” (priority 2000, published 2004) can be followed below.

As usually defined, the % inhibition is the share of the control response that was lost under treatment. High values mean a strong effect, low ones a weak effect.

Assay [1] has as its system platelet GPIbα. Briefly: Western blot/FACS of endoprotease-cleaved platelet GPIbα and glycocalicin. It counts as binding, human. Particulars: immunoblots and FACS. The source says: (§1) Immunoblotting and endoprotease cleavage techniques were used to identify the epitope for Y1 on the surface membrane of platelets.
(§2) The enzyme O-Sialoglycoprotein endoprotease from Pasteurella haemolytica (Cedarlan CLE 100) selectively cleaves human platelet GPIb and specifically cleaves only proteins containing sialylated, O-linked glycans. […] This enzyme has been reported to cleave GPIb, which is heavily O-glycosylated, but not GPIIb-IIIa or other receptors on platelets. GPIbα was digested with O-Sialoglycoprotein endoprotease in order to further establish the binding of Y1 to the molecule.
(§3) Mocarhagin [Sigma L4515a] is a cobra venom metalloproteinase that cleaves platelet GPIbα specifically at a single site between residues glu-282 and asp-283, thereby generating two stable products: a ˜45-kDa N-terminal fragment (His1-Glu282), which is released into the supernatant, and a membrane-bound ˜95 kDa C-terminal fragment.
(§4) Cathepsin G (Sigma C4428), a neutrophil serine protease, cleaves glycocalicin at a first cleavage site between residues Leu-275 and Tyr-276 and at a second cleavage site between residues Val-296 and Lys-297. Cathepsin G treatment of glycocalicin generates two N-terminal fragments: a small N-terminal 42 kDa fragment (His1-Leu275), a large N-terminal 45 kDa N-terminal fragment (His1-Val-296), and corresponding ˜95 kDa C-terminal fragments. (FIG. 1).
(§5) For mocarhagin digestion, 10^8 washed platelets in TS buffer (0.01 M Tris, 0.15 M sodium chloride, pH 7.4) containing 1 mM calcium chloride were treated with 12 μg/ml mocarhagin (final concentration) for 1 hour at 22° C. and digestion was stopped by adding EDTA to 0.01 M.
(§6) 10^6 platelets in 0.1 M Tris buffer pH 7.4 containing 0.2% albumin and protease inhibitors (10 μM leupeptin, 0.24 mM PMSF) was incubated with 0.14 mg/ml O-Sialoglycoprotein endoprotease (final concentration) for 45 min at 37° C. and digestion was stopped by adding sample buffer and boiling. The sample buffer used contained 3% SDS, 12% glycerol, 50 mM Tris HCl, 2% β-mercaptoethanol, and 0.03% bromphenol blue.
(§7) For mocarhagin digestion, glycocalicin in TS buffer containing 1 mM calcium chloride was incubated with 10 μg/ml mocarhagin (final concentration) for 1 hour at 22° C. and digestion was stopped by adding EDTA to 0.01 M.
(§8) For cathepsin G digestion, glycocalicin in TS buffer containing 1 mM calcium chloride was incubated with 3.4 μg/ml cathepsin G (final concentration) for 4 hour at 22° C. and digestion was stopped by adding PMSF to 1 mM.

The target of assay [2] is T1, platelet GPIbα (Homo sapiens, UniProt P07359).
T1 construct: endogenous in cells; host or cells: washed human platelets (blood-bank platelet concentrate)
The assay is described as above. It counts as binding.
Description: as §1, §2, §3, §4, §5, §6, §7, §8

In assay [3] the test system is washed platelets. Briefly: Ristocetin-induced agglutination of washed platelets after scFv preincubation. It counts as cell-based, human. The protocol: Aggregation is determined in PRP due to the presence of thrombotic agents, while agglutination is determined in washed platelets. The effect of Y1 (scFv) on agglutination of washed platelets was tested at various concentrations of Y1. Platelets were pre-incubated with Y1 scFv, Y17 scFv, Y16-scFv, or a control TM-1 scFv for 4 min at 37° C. before being exposed to ristocetin, an inducer of platelet agglutination and aggregation.
Platelet concentrate in acid-citrate-dextrose (ACD) was obtained from a blood bank, platelets were isolated, washed once in buffer containing ACD and saline in a ratio of 1:7. The platelets were centrifuged at 800 g for 10 min after each wash and were resuspended in Tyrodes solution (2 mM MgCl2, 137 mM NaCl, 2.68 mM KCl, 3 mM NaH2PO4, 0.1% glucose, 5 mM Hepes and 0.35% albumin, pH 7.35) and count the number of cells.
(§9) For platelet aggregation studies, platelet rich plasma (PRP) and washed platelets were stirred at 500 rpm at 37° C. in whole blood Lumiaggregometer (Chronolog, Havertown, Pa.). The difference in light transmission through the platelet suspension and suspending medium was taken as 100% aggregation. The effect of Y1 on platelet aggregation was evaluated by addition of different concentration of Y1 before the addition of agonist, and the effect was recorded for four minutes.
The effect of Y17-scFv on vWF-dependent agglutination of platelets was tested at different concentrations of Y17.

Assay [4] deals with platelet-rich-plasma (PRP). Briefly: Ristocetin-induced aggregation of platelet-rich-plasma after scFv preincubation. The class given is cell-based, human. The protocol:
The effect of Y1 (scFv) on aggregation of platelet-rich-plasma (PRP) was tested at various concentrations of Y1. PRP was pre-incubated with Y1 scFv, Y17 scFv, or a control sTM-1cFv for 4 min at 37° C. before being exposed to ristocetin, an inducer of platelet agglutination and aggregation. A reversible inhibitory effect was observed when scFv was added to PRP prior to the addition of ristocetin, and it was dose dependent.
Blood was collected into a tube containing 3.8% sodium citrate. Platelet-rich plasma was prepared by centrifugation at 250×g for 10 minutes.
as §9

Assay [5] deals with T2, GPIb (glycocalicin) derived from platelets (Homo sapiens, UniProt P07359).
T2 construct: glycocalicin (soluble, extracellular fragment of GPIbα); from tissue; host or cells: human platelets
Briefly: ELISA to GC (glycocalicin), monomer versus dimer. It counts as binding. The protocol: An ELISA assay was performed to ascertain the differences in binding between the monomer (the Y1 scFv-also known as Y1-kak) and the dimer Y1-cys-kak (the cysteine dimer) for antigen GPIb (glycocalicin) derived from platelets. A polyclonal anti single chain antibody and/or a novel polyclonal anti-VL (derived from rabbits) and anti-rabbit HRP, were used to detect the binding to GPIb. […] For instance, to reach 0.8 OD units 12.8 μg/ml of monomer was used compared to only 0.1 μg/ml of dimer.
100 ml of purified glycocalicin was incubated in a 96 flat well maxisorp plates, overnight at 4 degrees celsius. The plate was washed with PBST (PBS+0.05% tween) 3 times, then […] of PBST-milk (PBST+2% Non fat milk), for 1 hr at room temperature. The plate was washed with PBST, and the monomer or dimer (100 ml) was added in PBST-milk at different concentrations for 1 hr at room temp. Then the plate was washed and anti-VL polyclonal (derived from immunized rabbits with VL derived from Y1) (1:100 diluted in PBST-milk) was added for an hour. The plate was washed and anti-rabbit HRP was added for an additional hour. The plate was washed 5 times and 100 μl TMB substrate was added for approximately 15 minutes then 100 μl of 0.5H2SO4 was added to stop the reaction. The optical density of the plate was measured at 450 nm in an ELISA reader.
On the technique in general: An ELISA detects its analyte on a solid surface through an enzyme-linked reagent.

B1: Y17 scFv: second human scFv clone selected on platelets; SEQ ID NO: 203, heavy chain CDR3 SEQ ID NO: 20 (protein, listed as Homo sapiens)
scFv: MKYLLPTAAAGLLLLAAQPAMAEVQLVESGGGVVRPGGSLRLSCAASGFTFDDYGMSWVRQAPGKGLEWVSGINWNGGSTGYADSVKGRFTISRDNAKNSLYLQMNSLRAEDTAVYYCARLTHPYFWGQGTLVTVSRGGGGSGGGGSGGGGSSELTQDPAVSVALGQTVRITCQGDSLRSYYASWYQQKPGQAPVLVIYGKNNRPSGIPDRFSGSSSGNTASLTITGAQAEDEADYYCNSRDSSGNHVVFGGGTKLTVLGAAAEQKLISEEDLNGAA
For the molecule B1, in assay [1], the “binding to washed platelets after O-Sialoglycoprotein endoprotease” value was “abolishes binding”. In addition, the “binding to cathepsin G fragments of glycocalicin” value in assay [2] (Western blot) is reported as “bound to the larger fragment (His1-Val-296), but not to the smaller fragment (His1-Leu275)”. Besides, in assay [2] (Western blot of platelet lysates), the “binding after mocarhagin treatment of washed platelets” value is given as “binding of Y17 to the N-terminal 45 kDa tryptic fragment”. The “effect on vWF-dependent platelet agglutination in washed platelets induced by ristocetin (in words)” value in assay [3] (final concentration of 10, 25 or 50 μg/ml) is “did not inhibit”. The “% inhibition” value was found to be 15% in assay [3] (scFv 25 μg/ml, washed platelets, ristocetin) and 0% in assay [4] (scFv 38 μg/ml, PRP, ristocetin). For the same molecule, the “% agglutination” value in assay [3] (scFv 25 μg/ml, washed platelets, ristocetin = 100%) stood at 85%. In assay [4] (concentration not given), the “effect on ristocetin-induced platelet aggregation in PRP (in words)” value was “did not inhibit”. In addition, in assay [4] (scFv 38 μg/ml, PRP, ristocetin = 100%), the “% aggregation” value worked out at 100%.

B2: Y1-cys-kak: Y1 scFv with cysteine and lysine-alanine-lysine at the carboxyl end, forms a dimer; SEQ ID NO: 212 (protein)
scFv: MEVQLVESGGGVVRPGGSLRLSCAASGFTFDDYGMSWVRQAPGKGLEWVSGINWNGGSTGYADSVKGRFTISRDNAKNSLYLQMNSLRAEDTAVYYCARMRAPVIWGQGTLVTVSRGGGGSGGGGSGGGGSSELTQDPAVSVALGQTVRITCQGDSLRSYYASWYQQKPGQAPVLVIYGKNNRPSGIPDRFSGSSSGNTASLTITGAQAEDEADYYCNSRDSSGNHVVFGGGTKLTVLGGGGCKAK
With B2, in assay [5], the “activity relative to the monomer” value is given as “approximately 100 fold” and the “concentration used to reach 0.8 OD units” value was 0.1 µg/mL.
